The text below walks through data of patent US7410775B2, “Method for making recombinant peptides or proteins using soluble endoproteases” (Bio-Ker S.R.L., priority 2000, dated 2008).

What is called Km is the substrate concentration at which the rate is half of its maximum. One may read the kcat as the maximal rate divided by the concentration of active sites. In general, kcat/Km refers to the turnover number divided by the Michaelis constant.

Residues, ends and D or L forms follow the SMILES beside them. *: point of attachment. pNA = O=[N+]([O-])c1ccc(N*)cc1; Cbz = O=C(OCc1ccccc1)*

Data set [1] has as its target T1, Saccharomyces cerevisiae Kex2 protease, soluble secreted form ss-Kex2-C613 (parent Kex2 SEQ ID NO: 4) (Saccharomyces cerevisiae, UniProt P13134).
T1 construct: pro-region cut at Lys108-Arg109; from yeast
T1 sequence (P13134 1-613): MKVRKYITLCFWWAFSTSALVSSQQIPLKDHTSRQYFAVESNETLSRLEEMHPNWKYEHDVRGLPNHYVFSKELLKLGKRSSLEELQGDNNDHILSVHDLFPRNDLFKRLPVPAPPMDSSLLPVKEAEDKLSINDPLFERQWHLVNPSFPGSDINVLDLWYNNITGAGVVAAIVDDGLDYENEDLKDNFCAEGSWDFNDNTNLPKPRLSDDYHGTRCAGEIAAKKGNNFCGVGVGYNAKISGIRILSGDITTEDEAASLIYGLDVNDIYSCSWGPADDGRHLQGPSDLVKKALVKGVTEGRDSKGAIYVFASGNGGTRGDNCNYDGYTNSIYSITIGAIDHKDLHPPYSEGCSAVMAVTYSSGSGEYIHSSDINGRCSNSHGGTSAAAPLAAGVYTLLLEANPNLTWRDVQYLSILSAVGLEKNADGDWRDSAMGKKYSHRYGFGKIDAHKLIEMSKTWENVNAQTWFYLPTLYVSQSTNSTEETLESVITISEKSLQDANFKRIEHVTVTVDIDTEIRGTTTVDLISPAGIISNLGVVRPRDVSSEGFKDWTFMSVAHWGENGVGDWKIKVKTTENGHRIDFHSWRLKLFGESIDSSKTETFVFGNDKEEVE
Nature of the data set: Kinetic constants of ss-Kex2-C613 (single initial substrate concentration, progress curve, Michaelis-Menten fit). The data set is classed as biochemical. Here is the method:
(§1) The enzyme activity was determined by a calorimetric test which exploits the capacity of the enzyme to hydrolyse the substrate Z-L-tyrosine-L-lysine-L-arginine-p-nitroanilide (Z-Y-K-R-pNA). The incubation mixture comprises 0.1 mM Z-Y-K-R-pNA in 0.2 M Hepes, pH 7.0 and 1 mM CaCl2, in a total volume of 1.5 ml at 37° C. The reaction is monitored at 405 nm, a wavelength at which the maximum decrease in the molar extinction coefficient (As), equal to 10.9 mM^−1 cm^−1, occurs. An enzyme unit is defined as being the quantity of enzyme that catalyses the transformation of 1 μmole of substrate per minute under the conditions described above. […]
(§2) The kinetic constants were determined by a simplified procedure which requires that measurements be carried out at a single initial concentration of substrate and until the substrate is exhausted. The method provides that, at various times, the average values of residual concentration and rate be determined and is applicable in those cases in which the enzyme catalyses an entirely irreversible reaction under the operating conditions, and is not subject to inhibition by product (Segel, I. H. (1975) Enzyme Kinetics, Wiley, New York). […]

Data set [2] deals with T2, Kluyveromyces lactis Kex1 protease, soluble secreted variant ss-Kex1-C600 (truncated at amino acid 600; parent Kex1 SEQ ID NO: 3) (Kluyveromyces lactis, UniProt P09231).
T2 sequence (P09231 103-600): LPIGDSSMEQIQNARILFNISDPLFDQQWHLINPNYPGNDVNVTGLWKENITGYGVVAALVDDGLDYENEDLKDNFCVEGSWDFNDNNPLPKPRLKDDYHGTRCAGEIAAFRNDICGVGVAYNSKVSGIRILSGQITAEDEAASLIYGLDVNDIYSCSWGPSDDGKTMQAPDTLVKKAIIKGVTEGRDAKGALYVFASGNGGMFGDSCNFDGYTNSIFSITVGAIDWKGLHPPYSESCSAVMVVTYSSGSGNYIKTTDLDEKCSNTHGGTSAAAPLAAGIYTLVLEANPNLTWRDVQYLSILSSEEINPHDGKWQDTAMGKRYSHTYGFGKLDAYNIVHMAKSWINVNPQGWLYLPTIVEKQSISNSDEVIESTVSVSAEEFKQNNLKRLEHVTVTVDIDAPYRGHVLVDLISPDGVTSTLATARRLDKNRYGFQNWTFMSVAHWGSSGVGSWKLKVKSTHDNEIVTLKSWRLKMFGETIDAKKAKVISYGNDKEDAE
Nature of the data set: Kinetic constants of ss-Kex1-C600 (single initial substrate concentration, progress curve, Michaelis-Menten fit). It is filed as biochemical. Here is the method: as §1, §2

Substrate in data set [3]: N=C(N)NCCC[C@H](NC(=O)[C@H](CCCCN)NC(=O)[C@H](Cc1ccc(O)cc1)NC(=O)OCc1ccccc1)C(=O)Nc1ccc([N+](=O)[O-])cc1
The description is as above. The data set is classed as biochemical, Kluyveromyces lactis. The settings on record: other: ss-Kex1-C600; pH 7.0. Here is the method:
The enzyme activity was determined by a calorimetric test which exploits the capacity of the enzyme to hydrolyse the substrate Z-L-tyrosine-L-lysine-L-arginine-p-nitroanilide (Z-Y-K-R-pNA). The incubation mixture comprises 0.1 mM Z-Y-K-R-pNA in 0.2 M Hepes, pH 7.0 and 1 mM CaCl2, in a total volume of 1.5 ml at 37° C. The reaction is monitored at 405 nm, a wavelength at which the maximum decrease in the molar extinction coefficient (As), equal to 10.9 mM^−1 cm^−1, occurs. An enzyme unit is defined as being the quantity of enzyme that catalyses the transformation of 1 μmole of substrate per minute under the conditions described above. Unless expressly indicated otherwise, the data presented in Table 2 refer to the activity secreted in the growth medium by derivatives of the W303 strain which was grown in a flask at 30° C., with agitation (220 rpm), in 1040 medium-2% galactose (except for strains NP255 and NP265 in which the carbon source added to the growth medium was 2% glucose). Various samples were taken along the growth curve for each strain. […] The invention is therefore not limited by the type of promoter used, as long as the levels of secretion of the endoprotease of the invention are satisfactory.
The kinetic constants were determined by a simplified procedure which requires that measurements be carried out at a single initial concentration of substrate and until the substrate is exhausted. The method provides that, at various times, the average values of residual concentration and rate be determined and is applicable in those cases in which the enzyme catalyses an entirely irreversible reaction under the operating conditions, and is not subject to inhibition by product (Segel, I. H. (1975) Enzyme Kinetics, Wiley, New York). The results so obtained were processed using the Grafit programme, which permitted the interpolation of the Michaelis-Menten profile and the determination of the values of Km and Vmax, presented in Table 3. kcat and the kcat/Km ratio were then obtained from those values and from the enzyme concentration.

Substrate in data set [4]: N=C(N)NCCC[C@H](NC(=O)[C@H](CCCCN)NC(=O)[C@H](Cc1ccc(O)cc1)NC(=O)OCc1ccccc1)C(=O)Nc1ccc([N+](=O)[O-])cc1
Put plainly: Kinetic constants of ss-Kex2-C613 (single initial substrate concentration, progress curve, Michaelis-Menten fit). The data set is classed as biochemical, Saccharomyces cerevisiae. The conditions noted are these: other: ss-Kex2-C613; pH 7.0. The protocol: as §1, §2

For the molecule `N=C(N)NCCC[C@H](NC(=O)[C@H](CCCCN)NC(=O)[C@H](Cc1ccc(O)cc1)NC(=O)OCc1ccccc1)C(=O)Nc1ccc([N+](=O)[O-])cc1` [Z-Y-K-R-pNA, Z-L-tyrosine-L-lysine-L-arginine-p-nitroanilide] (Cbz-Tyr-Lys-Arg-pNA), the Vmax in data set [1] is on record as 1029 (ΔA min^−1) × 10^3; in data set [2], 1720 (ΔA min^−1) × 10^3.

B1: Kluyveromyces lactis Kex1 protease, soluble secreted variant ss-Kex1-C600 (truncated at amino acid 600; parent Kex1 SEQ ID NO: 3) (Kluyveromyces lactis NRRL … (protein)
chain: LPIGDSSMEQIQNARILFNISDPLFDQQWHLINPNYPGNDVNVTGLWKENITGYGVVAALVDDGLDYENEDLKDNFCVEGSWDFNDNNPLPKPRLKDDYHGTRCAGEIAAFRNDICGVGVAYNSKVSGIRILSGQITAEDEAASLIYGLDVNDIYSCSWGPSDDGKTMQAPDTLVKKAIIKGVTEGRDAKGALYVFASGNGGMFGDSCNFDGYTNSIFSITVGAIDWKGLHPPYSESCSAVMVVTYSSGSGNYIKTTDLDEKCSNTHGGTSAAAPLAAGIYTLVLEANPNLTWRDVQYLSILSSEEINPHDGKWQDTAMGKRYSHTYGFGKLDAYNIVHMAKSWINVNPQGWLYLPTIVEKQSISNSDEVIESTVSVSAEEFKQNNLKRLEHVTVTVDIDAPYRGHVLVDLISPDGVTSTLATARRLDKNRYGFQNWTFMSVAHWGSSGVGSWKLKVKSTHDNEIVTLKSWRLKMFGETIDAKKAKVISYGNDKEDAE
In the case of B1, in data set [3], the Km was 61.4 µM, the kcat came out at 3070 s⁻¹ and the kcat/Km is 5e+07 M⁻¹ s⁻¹.

B2: Saccharomyces cerevisiae Kex2 protease, soluble secreted form ss-Kex2-C613 (parent Kex2 SEQ ID NO: 4) (Saccharomyces cerevisiae S288C) (protein)
chain: MKVRKYITLCFWWAFSTSALVSSQQIPLKDHTSRQYFAVESNETLSRLEEMHPNWKYEHDVRGLPNHYVFSKELLKLGKRSSLEELQGDNNDHILSVHDLFPRNDLFKRLPVPAPPMDSSLLPVKEAEDKLSINDPLFERQWHLVNPSFPGSDINVLDLWYNNITGAGVVAAIVDDGLDYENEDLKDNFCAEGSWDFNDNTNLPKPRLSDDYHGTRCAGEIAAKKGNNFCGVGVGYNAKISGIRILSGDITTEDEAASLIYGLDVNDIYSCSWGPADDGRHLQGPSDLVKKALVKGVTEGRDSKGAIYVFASGNGGTRGDNCNYDGYTNSIYSITIGAIDHKDLHPPYSEGCSAVMAVTYSSGSGEYIHSSDINGRCSNSHGGTSAAAPLAAGVYTLLLEANPNLTWRDVQYLSILSAVGLEKNADGDWRDSAMGKKYSHRYGFGKIDAHKLIEMSKTWENVNAQTWFYLPTLYVSQSTNSTEETLESVITISEKSLQDANFKRIEHVTVTVDIDTEIRGTTTVDLISPAGIISNLGVVRPRDVSSEGFKDWTFMSVAHWGENGVGDWKIKVKTTENGHRIDFHSWRLKLFGESIDSSKTETFVFGNDKEEVE
notes: pro-region cut at Lys108-Arg109; from yeast
B2: in data set [4], the Km was determined as 56.8 µM.
